From patent US11912777 (NANJING LEADS BIOLABS, dated 2024)
Where a chain is given by its changes, count along the chain named.

Assays:
[1] = target: T1, human TNFR2 expressed on activated PBMCs (human, UniProt P20333 23-461); assay: flow cytometry on activated human PBMCs
T1 construct: whole, on cells; Native receptor on primary cells
T1 sequence (looked up): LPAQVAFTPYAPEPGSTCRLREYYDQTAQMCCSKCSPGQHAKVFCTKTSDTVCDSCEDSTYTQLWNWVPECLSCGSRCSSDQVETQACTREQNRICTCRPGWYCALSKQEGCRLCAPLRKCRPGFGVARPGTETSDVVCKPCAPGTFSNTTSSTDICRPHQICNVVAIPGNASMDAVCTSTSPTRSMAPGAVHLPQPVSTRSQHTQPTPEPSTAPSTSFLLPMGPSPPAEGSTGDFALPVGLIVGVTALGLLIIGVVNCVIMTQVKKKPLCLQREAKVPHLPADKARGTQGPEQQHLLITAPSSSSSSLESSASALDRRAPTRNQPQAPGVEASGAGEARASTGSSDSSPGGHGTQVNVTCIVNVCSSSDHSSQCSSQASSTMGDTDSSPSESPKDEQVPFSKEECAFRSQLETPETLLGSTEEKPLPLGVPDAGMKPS

[2] = target: T2, Human TNFR2, human Fc tag protein (human); assay: ELISA on coated huTNFR2-huFc, top panel (with 32A1D5); fit value of a flat control curve; unit from the axis
T2 construct: also called huTNFR2-huFc; HuTNFR2-huFc

[3] = target: T3, human TNFR2, mouse Fc-tag (human); assay: ELISA on coated human TNFR2-mFc, left panel; fit value of a flat control curve; unit from the axis [a]
T3 construct: also called hTNFR2-mFc; huTNFR2-mFc
T3 chain: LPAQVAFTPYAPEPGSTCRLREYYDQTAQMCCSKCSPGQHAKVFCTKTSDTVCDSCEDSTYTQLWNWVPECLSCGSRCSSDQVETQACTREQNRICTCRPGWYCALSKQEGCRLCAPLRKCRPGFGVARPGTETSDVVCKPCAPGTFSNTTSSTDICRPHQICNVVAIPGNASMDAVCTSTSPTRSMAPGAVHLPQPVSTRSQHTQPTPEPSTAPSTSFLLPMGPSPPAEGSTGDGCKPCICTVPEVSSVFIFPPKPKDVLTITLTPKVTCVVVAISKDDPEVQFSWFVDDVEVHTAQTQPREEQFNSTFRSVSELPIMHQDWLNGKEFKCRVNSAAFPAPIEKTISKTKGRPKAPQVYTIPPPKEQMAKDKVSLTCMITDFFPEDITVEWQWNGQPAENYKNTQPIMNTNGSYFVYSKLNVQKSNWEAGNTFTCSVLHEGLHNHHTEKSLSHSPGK

[4] = target: T3, human TNFR2, mouse Fc-tag; assay: ELISA on coated human TNFR2-mFc, left panel; fit value of a flat control curve; unit from the axis [b]
[5] = target: T3, human TNFR2, mouse Fc-tag; assay: blocking ELISA: hTNFR2-mFc mixed with antibody, binding to coated TNF-alpha his tag; right panel; fit value of a flat control curve; unit from the axis [a]
[6] = target: T2, Human TNFR2, human Fc tag protein; assay: ELISA on coated huTNFR2-huFc, middle panel (with 43B7A4); fit value of a flat control curve; unit from the axis
[7] = target: T4, Cynomolgus TNFR2, human Fc tag protein (cynomolgus); assay: ELISA on coated cyno-TNFR2-huFc; bottom panel
T4 construct: also called cyno-TNFR2-huFc

[8] = target: T3, human TNFR2, mouse Fc-tag; assay: ELISA, huTNFR2-mFc coated
[9] = target: T5, cynomolgus monkey TNFR2 expressed on the cell surface of 293T cells (cynomolgus monkey, UniProt P20333 23-283 (human entry)); assay: flow cytometry on 293T cells expressing cynomolgus TNFR2; left panel; unit from the axis
T5 construct: the entry ends shortly after the transmembrane stretch and includes the signal peptide; also called CynoTNFR2; cynomolgus TNFR2 on cell surface
T5 chain: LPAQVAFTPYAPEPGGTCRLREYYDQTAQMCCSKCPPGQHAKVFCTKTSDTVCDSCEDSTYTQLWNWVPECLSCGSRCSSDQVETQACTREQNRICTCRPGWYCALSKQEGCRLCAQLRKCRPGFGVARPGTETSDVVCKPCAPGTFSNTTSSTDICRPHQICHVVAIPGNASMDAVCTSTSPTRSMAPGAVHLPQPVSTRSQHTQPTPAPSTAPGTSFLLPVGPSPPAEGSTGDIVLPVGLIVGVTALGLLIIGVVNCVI

[10] = target: T6, mouse TNFR2 variant 019-12 (human segment 1L-96C) (mouse with a human segment); assay: ELISA, TNFR2 variant coated at 0.5 µg/mL
T6 construct: Mouse TNFR2 extracellular domain with the human segment, followed by a human Fc

[11] = target: T7, human TNFR2 expressed on the cell surface of 293T cells (human, UniProt P20333 23-461); assay: flow cytometry, blocking of Biotin-TNF-alpha binding to human TNFR2 on 293T cells; right panel; unit from the axis
T7 construct: also called HuTNFR2; human TNFR2 on cell surface
T7 sequence: T1 sequence (looked up)

TNFR2 = assay: ELISA on coated TNFR2, positive control of the TNFR superfamily cross-binding test; upper panel
[12] = target: T3, human TNFR2, mouse Fc-tag; assay: blocking ELISA: hTNFR2-mFc mixed with antibody, binding to coated TNF-alpha his tag; right panel; unit from the axis [a]
[13] = target: T8, His-tagged human TNFR2 (Sino Biological, Cat #10417-H08H) (human, UniProt P20333 23-257); assay: BLI (Octet RED 96), antibody on Fc capture tips, His-tagged TNFR2 as analyte, 1:1 global fit
T8 construct: Bought reagent, analyte in BLI; also called recombinant human TNFR2; not shown: His tag
T8 sequence (looked up): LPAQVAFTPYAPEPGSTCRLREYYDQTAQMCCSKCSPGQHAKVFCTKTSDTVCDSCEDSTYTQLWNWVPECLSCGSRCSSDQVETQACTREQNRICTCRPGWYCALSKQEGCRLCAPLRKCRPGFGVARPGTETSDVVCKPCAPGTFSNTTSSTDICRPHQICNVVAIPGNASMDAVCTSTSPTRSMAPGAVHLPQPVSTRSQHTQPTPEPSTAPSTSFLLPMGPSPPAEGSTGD

[14] = target: T9, His-tagged cynomolgus monkey TNFR2 (Sino Biological, Cat #90102-C08H) (cynomolgus monkey, UniProt A0A2K5VET2 132-366); assay: as above
T9 construct: Bought reagent, analyte in BLI; also called Cynomolgus TNFR2; recombinant cynomolgus monkey TNFR2; not shown: His tag
T9 sequence: T8 sequence (looked up) with S16G, S36P, P117Q, N164H, E210A, S216G, M223V

[15] = target: T10, human 4-1BB (Sino Biological, Cat #10041-H08H) (human, UniProt Q07011 24-186); assay: ELISA, protein coated
T10 construct: Bought reagent coated on ELISA plates

[16] = target: T11, human CD40 (Sino Biological, Cat #10774-H08H) (human, UniProt P25942 21-193); assay: ELISA, protein coated
T11 construct: Bought reagent coated on ELISA plates

[17] = target: T12, human CD27 (Sino Biological, Cat #10039-H31H) (human, UniProt P26842 20-192); assay: ELISA, protein coated
T12 construct: Bought reagent coated on ELISA plates
T12 sequence (looked up): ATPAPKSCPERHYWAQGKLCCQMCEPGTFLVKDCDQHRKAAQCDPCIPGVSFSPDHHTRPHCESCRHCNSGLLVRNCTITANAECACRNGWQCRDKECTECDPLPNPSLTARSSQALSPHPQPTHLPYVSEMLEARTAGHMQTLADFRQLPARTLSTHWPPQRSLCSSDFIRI

[18] = target: T13, human HVEM (Sino Biological, Cat #10334-H03H) (human, UniProt Q92956 39-202); assay: ELISA, protein coated
T13 construct: Bought reagent coated on ELISA plates
T13 sequence (looked up): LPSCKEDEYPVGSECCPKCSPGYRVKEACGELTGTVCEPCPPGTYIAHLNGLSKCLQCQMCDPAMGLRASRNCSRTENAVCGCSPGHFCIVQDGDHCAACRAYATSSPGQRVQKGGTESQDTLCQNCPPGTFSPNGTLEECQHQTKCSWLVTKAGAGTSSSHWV

[19] = target: T14, human OX40 (Sino Biological, Cat #10481-H08H) (human, UniProt P43489 29-216); assay: ELISA, protein coated
T14 construct: Bought reagent coated on ELISA plates
T14 sequence (looked up): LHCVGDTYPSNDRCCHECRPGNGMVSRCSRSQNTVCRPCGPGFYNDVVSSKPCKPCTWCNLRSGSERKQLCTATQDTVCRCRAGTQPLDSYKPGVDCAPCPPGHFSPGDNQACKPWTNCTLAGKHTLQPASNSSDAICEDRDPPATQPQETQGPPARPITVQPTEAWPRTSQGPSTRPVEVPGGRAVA

[20] = target: T15, human GITR (Sino Biological, Cat #13643-H08H) (human, UniProt Q9Y5U5 26-161); assay: ELISA, protein coated
T15 construct: Bought reagent coated on ELISA plates
T15 sequence (looked up): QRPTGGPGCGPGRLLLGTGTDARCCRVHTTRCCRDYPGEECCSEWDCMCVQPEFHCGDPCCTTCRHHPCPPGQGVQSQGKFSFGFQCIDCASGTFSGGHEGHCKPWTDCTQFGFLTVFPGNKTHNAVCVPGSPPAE

T11 sequence (P25942 21-193 limits assumed): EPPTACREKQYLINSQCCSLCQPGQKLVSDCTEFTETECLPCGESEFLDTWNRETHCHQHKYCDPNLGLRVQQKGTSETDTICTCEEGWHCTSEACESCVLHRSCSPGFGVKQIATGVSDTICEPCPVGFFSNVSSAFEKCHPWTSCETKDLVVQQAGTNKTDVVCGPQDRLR
T4 sequence (chain, as listed by the source limits assumed): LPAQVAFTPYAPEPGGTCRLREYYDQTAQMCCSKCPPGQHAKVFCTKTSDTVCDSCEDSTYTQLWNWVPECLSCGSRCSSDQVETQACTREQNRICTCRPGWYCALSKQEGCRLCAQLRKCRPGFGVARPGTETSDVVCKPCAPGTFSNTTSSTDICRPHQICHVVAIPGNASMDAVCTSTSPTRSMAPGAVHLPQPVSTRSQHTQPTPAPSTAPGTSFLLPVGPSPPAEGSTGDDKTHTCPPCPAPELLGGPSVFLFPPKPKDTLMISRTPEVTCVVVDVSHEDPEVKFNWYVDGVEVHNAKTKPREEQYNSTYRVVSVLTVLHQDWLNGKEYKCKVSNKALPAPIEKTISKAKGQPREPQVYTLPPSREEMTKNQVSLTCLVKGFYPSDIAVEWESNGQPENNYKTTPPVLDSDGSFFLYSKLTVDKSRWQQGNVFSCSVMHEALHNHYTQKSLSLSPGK

B1: negative control IgG (antibody, V domains shown)
VH: QVQLVESGGGAVQPGRSLRLSCAASGFTFSSYGMHWVRQAPGKGLEWVAVILYDGSDKFYADSVKGRFTISRDNSKNTLYLQMNSLRAEDTAVYYCAKVAVAGTHFDYWGQGTLVTVSS
VL: DIQMTQSPSSLSASVGDRVTITCRASQGIRNDLGWYQQKPGKAPKLLIYAASSLQSGVPSRFSGSGSGTDFTLTISSLQPEDFATYYCQQLNSYPPTFGGGTKVEIKR
notes: also called IgG Control; IgG (Negative Control)
binding result [1]: no binding
EC50 [2]: ~0.102 nM
EC50 [3]: ~0.102 nM
EC50 [4]: ~3.06 nM
IC50 [5]: ~2.06 nM
EC50 [6]: 277 nM
binding result [7]: no binding (tested: about 1 nM)

B2: humanized antibody hu32-C (Hu32-H1/Hu32-L3) (antibody, human IgG1, kappa, V domains shown)
VH: QVTLKESGPTLVKPTQTLTLTCTFSGFSLSTLGMGVGWIRQPPGKALEWLAHIWWDADKYYNPALKSRLTITKDTSKNQVVLTMTNMDPVDTATYYCARMTGTRYFDVWGQGTTVTVSS
VL: DIQMTQSPSSLSASVGDRVTITCKASQNINKFIAWYQQKPGKVPKLLIHYTSTLQPGVPSRFSGSGSGSDYTLTISSLQPEDVATYYCLQYGVLWTFGGGTKVEIKR
EC50 [8]: 0.0697 nM
EC50 [9]: 0.863 nM
binding result [10]: binds
IC50 [11]: 8.07 nM
EC50 (read off the curve) (TNFR2): ~0.07 nM
IC50 [12]: 0.433 nM
Kd [13]: 0.606 nM
koff [13]: 0.000168 s⁻¹
kon [13]: 277000 M⁻¹ s⁻¹
Kd [14]: 0.374 nM
koff [14]: 0.000197 s⁻¹
kon [14]: 528000 M⁻¹ s⁻¹
binding result [15]: no binding (tested: starting concentration 0.4 µg/mL)
binding result [16]: no binding (tested: starting concentration 0.4 µg/mL)
binding result [17]: no binding (tested: starting concentration 0.4 µg/mL)
binding result [18]: no binding (tested: starting concentration 0.4 µg/mL)
binding result [19]: no binding (tested: starting concentration 0.4 µg/mL)
binding result [20]: no binding (tested: starting concentration 0.4 µg/mL)
